The subject of series [1] is MS2 coat protein. The series can be described thus: apparent KD of MS2 coat protein, switch ON state; designed switch direction (-1 OFF switch, 1 ON switch): 1; higher = weaker reporter binding. As to conditions: FMN input: 0 or 200 uM; Eterna round: R93 (includes R88 designs). The essentials: (§1)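 Designed RNA switches were transcribed on-chip from Illumina sequencing clusters. They were then titrated with SNAP-549-labelled MS2 coat protein (twofold steps, 0.7 or 1.5 nM to 3 µM; 0.8–1.5 h to 10–20 min per step) in 100 mM Tris-HCl pH 7.5, 80 mM KCl, 4 mM MgCl2, without or with constant ligand. Apparent KD is the per-design median of normalised cluster binding-curve fits.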

Series [2] deals with MS2 coat protein. The series can be described thus: apparent KD of MS2 coat protein, switch OFF state (with FMN for OFF switches, without FMN for ON switches); designed switch direction (-1 OFF switch, 1 ON switch): 1; higher = weaker reporter binding. As to conditions: FMN input: 0 or 200 uM; Eterna round: R93 (includes R88 designs). The essentials:
as §1

As for “AUAAAACAUGAGGAUCACCCAUGUAGACAUAUGGGAGGAUAUACUAGAUCGAAAGAUCUAGUAGAAGGUCUUAAAA [JL Mod of Eli 10]”, the “apparent KD of MS2 coat protein” value amounted to 205 nM with MS2 coat protein [1] and 183 nM in the series with MS2 coat protein [2].

Take “AUAAAACAUGAGGAUCACCCAUGUCAAGAGUAUUAAGGAUAUGAGCCAGGGAACUGGCGAUCAGAAGGUGAGACUC [Atxerexebe]”: the figures for the “apparent KD of MS2 coat protein” value in the series with MS2 coat protein [1] and in the series with MS2 coat protein [2] were 160 nM and 46.7 nM, respectively.

On to “AUAAAACAUGAGGAUCACCCAUGUCCGACAAAUCAAGGAUAUGAGAGCAAAACCAGGCUGUUAGAAGGUGAAAGAA [Atlausa]”, for which the “apparent KD of MS2 coat protein” value in the series on MS2 coat protein [1] and with MS2 coat protein [2] was 154 nM throughout.

As to “AUAAGAAAAACACAGGAUAUCCAAAAGAAAACAUGAGGAUCACCCAUGUAAAGAAAAUAAAAAUGGGAGAAGGGUGAAAAUAAUA [Mat - Same State 2 - JL mod - D32]”, the “apparent KD of MS2 coat protein” value in the series with MS2 coat protein [1] was 28.1 nM; with MS2 coat protein [2], 62.2 nM.

As for “AUAAGACAUGAGGAUCACCCAUGUAUAAGAGCAUGAGGAUAUAUGAAAAGUAAUAGGAGGAUAGAAGGCAUGGUUG [JR_SS001_Sub1219]”, the “apparent KD of MS2 coat protein” value in the series on MS2 coat protein [1] stood at 89.7 nM; with MS2 coat protein [2] it was 102 nM.

For the sequence “AUAAUAAAAACACAGGAUAUCCAAAAGAAAACAUGAGGAUCACCCAUGUAAAGAAAAUAAAAAUGGGAGAAGGGUGAAAUAAAUA [Mat - Same State 2 - JL mod - D34]”, the “apparent KD of MS2 coat protein” value came out at 37.4 nM in the series with MS2 coat protein [1] and 42.9 nM with MS2 coat protein [2].

As for “AUAUAAAUAAGCUAGGAUAUACUAAAGUAAACAUGAGGAUCACCCAUGUGAAGAAAGAAACUCAUGUAGAAGGAGCAUAUAUAUA [viburnum 3]”, the entries for the “apparent KD of MS2 coat protein” value in the series on MS2 coat protein [1] and in the series on MS2 coat protein [2] were 45.6 nM and 185 nM, respectively.

Turning to “AUAUAUAUAAGGUAGGAUAUCCAAAAGUAAACAUGAGGAUCACCCAUGUAAAGAAAGAAACAAUGGGAGAAGGACCAUAUAUAUA [77%, More Tesla, 3]”, the “apparent KD of MS2 coat protein” value with MS2 coat protein [1] stood at 9.5 nM; in the series on MS2 coat protein [2] it was 24 nM.

For “AUGAAUAGCCUCGAGGAUAUCCAGUCAUGCACAUGAGGAUCACCCAUGUAAGAGAGAGUAUAAUGGGAGAAGGCGAGUUCUCGGU [JR_SS002_Sub1705]”, the entries for the “apparent KD of MS2 coat protein” value with MS2 coat protein [1] and with MS2 coat protein [2] were 50.5 nM and 72.2 nM, respectively.

On to “AUGGUCAAGUGUGAGGAUAUCCAGGCUCCCACAUGAGGAUCACCCAUGUCUUAAAGGGCGUAAAGGGAGAAGGUACGAACGCCAC [Diatenat]”, for which the “apparent KD of MS2 coat protein” value stood at 35.6 nM in the series with MS2 coat protein [1] and 46.8 nM with MS2 coat protein [2].

For “AUGUAUAGCCUCGAGGAUAUCCUGUCAUGCACAUGAGGAUCACCCAUGUAAGAGAGAGUUUAAUGGGAGAAGGCGAGUUCUCGGU [JR_SS002_Sub1706]”, the “apparent KD of MS2 coat protein” value in the series with MS2 coat protein [1] was 33.4 nM; with MS2 coat protein [2], 66.6 nM.

For “CACAGAGUGGCGUAGGAUAUGUACAUGAGUACAUGAGGAUCACCCAUGUGGGCGUGAAAUUACGAGCAGAAGGGCGUCGCCUGUG [Edradi]”, the “apparent KD of MS2 coat protein” value in the series with MS2 coat protein [1] is 24.4 nM; in the series on MS2 coat protein [2] it was 135 nM.

“CAGCGCUGUCGAGAGGAUAUGCGGUGAAGGACAUGAGGAUCACCCAUGUAAGCGAUAGUAUUACGGUAGAAGGCUCUACAGCUGC [Isdianbia]”: the “apparent KD of MS2 coat protein” value in the series on MS2 coat protein [1] is 41.8 nM; with MS2 coat protein [2] it was 114 nM.

With “CCCAUACAUGAGGAUCACCCAUGUUUUAUUAACAGAGGAUAUAUAGGUGAAACAAACAACAUAGAAGGCUGCCCAA [Default title]”, the “apparent KD of MS2 coat protein” value in the series on MS2 coat protein [1] turned out to be 34.2 nM; with MS2 coat protein [2], 53.2 nM.

Regarding “CGGAGACAUGAGGAUCACCCAUGUGAGAAGAGGCGAGGAUAUCGAAAGAAAGAAGAGAAACGAGAAGGCGCGAGGU [salish99-SS1-071]”, the results for the “apparent KD of MS2 coat protein” value in the series on MS2 coat protein [1] and with MS2 coat protein [2] were 24.2 nM and 34.5 nM, respectively.

For the sequence “CGGAGACAUGAGGAUCACCCAUGUGAGAAGAGGCGAGGAUAUCGAAAGAAAGAAGAGAAACGAGAAGGCGCGAGUU [salish99-SS1-070]”, the “apparent KD of MS2 coat protein” value stood at 21.5 nM in the series on MS2 coat protein [1] and 34.5 nM with MS2 coat protein [2].

With “CGGCUACAUGAGGAUCACCCAUGUCAGCCGAGGGCAGGAUAUGCGGUUCAUUCUCAAGCAGCAGAAGGGUCAAAAG [Onmabiat]”, the “apparent KD of MS2 coat protein” value was determined as 12.8 nM with MS2 coat protein [1] and 8.83 nM in the series on MS2 coat protein [2].

With “CUGAGGAAGAGAGAGGAUAUCCAAAGGAAAACAUGAGGAUCACCCAUGUAAAAGGUAGGAAAUUGGGAGAAGGCUCAAGAGAGAG [salish99-ss2-068]”, the “apparent KD of MS2 coat protein” value in the series with MS2 coat protein [1] was found to be 22.4 nM; in the series with MS2 coat protein [2], 34.3 nM.

As to “GAAAAACAUGAGGAUCACCCAUGUAGAAACAUGGGAGGAUAUACAAAGACGAAAGUCAAAGUAGAAGGCCUAAAAG [Mat - Same State 1 - Mod - D159]”, the entries for the “apparent KD of MS2 coat protein” value in the series on MS2 coat protein [1] and in the series with MS2 coat protein [2] were 207 nM and 119 nM, respectively.

Take “GAAAAACAUGAGGAUCACCCAUGUAGAAAUAUGGGAGGAUAUACAAAGACGAAAGUCAAAGUAGAAGGCUCAAAAG [Starry Same State 1.2 (mat747 round 1 mod)]”: the “apparent KD of MS2 coat protein” value came to 28.3 nM in the series on MS2 coat protein [1] and 164 nM in the series on MS2 coat protein [2].

As for “GAAAAACAUGAGGAUCACCCAUGUAGAAAUAUGGGAGGAUAUACGAAGACGAAAGUCGAAGUAGAAGGCCUAAAAG [Mat - Same State 1 - Eli mod - D24]”, the “apparent KD of MS2 coat protein” value was determined as 27 nM with MS2 coat protein [1] and 84.9 nM in the series with MS2 coat protein [2].

Regarding “GAAAAACAUGAGGAUCACCCAUGUGAAAAUAUGGGAGGAUAUACAAAGACGAAAGUCAAAGUAGAAGGCCUAAAAG [Mat - Same State 1 - Eli mod - D3]”, the “apparent KD of MS2 coat protein” value turned out to be 23.5 nM with MS2 coat protein [1] and 139 nM with MS2 coat protein [2].

As for “GAAAAACAUGAGGAUCACCCAUGUGAAAAUAUGGGAGGAUAUACGAAGUCGAAAGUCAAAGUAGAAGGCCUAAAAG [Garnet 32]”, the “apparent KD of MS2 coat protein” value in the series with MS2 coat protein [1] was determined as 43.6 nM; in the series on MS2 coat protein [2], 155 nM.

For “GAAAAACAUGAGGAUCACCCAUGUGGAAAUAUGGAAGGAUAUACAAAGACGAGAGUCAAAGUAGAAGGUCUAAAAG [Mat - Same State 1 - Eli mod - D20]”, the results for the “apparent KD of MS2 coat protein” value in the series with MS2 coat protein [1] and with MS2 coat protein [2] were 17.3 nM and 26.3 nM, respectively.

In the case of “GACAAACAUGAGGAUCACCCAUGUAGAAAUAUGGGAGGAUAUACACAGACGAAAGUCAAAGUAGAAGGCCUACAAG [77%, Mat - Mod of Eli - With 3 more C's]”, the “apparent KD of MS2 coat protein” value came to 25.9 nM with MS2 coat protein [1] and 103 nM in the series on MS2 coat protein [2].

Regarding “GAGAGACAUGAGGAUCACCCAUGUAGGAUUAUGGGAGGAUAUACAAAGACGAGAGUCAGAGUAGAAGGCCUAGGAG [salish99-ss1-139]”, the entries for the “apparent KD of MS2 coat protein” value in the series with MS2 coat protein [1] and in the series on MS2 coat protein [2] were 25.4 nM and 75.6 nM, respectively.

As to “GAGGACAUAGUACAGGAUAUAUGAAUAGUUACAUGAGGAUCACCCAUGUGCAUUAAUAUGCGAACAUAGAAGGGUGGUAGUUAUC [Mat - Same state - Malcolm Mod - D128]”, the “apparent KD of MS2 coat protein” value in the series with MS2 coat protein [1] was 119 nM; in the series with MS2 coat protein [2], 64.4 nM.

As to “GAGGACAUAGUAUAGGAUAUAUGAAUAGUUACAUGAGGAUCACCCAUGUGCAUUUAUAUGCGAACAUAGAAGGGUGGUAGUUAUC [SameState2 Malc#31]”, the “apparent KD of MS2 coat protein” value in the series on MS2 coat protein [1] is 122 nM; in the series on MS2 coat protein [2], 75.1 nM.

“GAUAGACAUGAGGAUCACCCAUGUAGAAUUAUGGGAGGAUAUACAAAGACGAGAGUCAGAGUAGAAGGCCUAGGAA [salish99-ss1-156]”: the “apparent KD of MS2 coat protein” value in the series on MS2 coat protein [1] was determined as 24.5 nM; in the series with MS2 coat protein [2], 64.6 nM.

The values are drawn from the supplement of paper PMC9170038.
